Experimental data published in patent US20230112123A1 (IMMUNEONCO BIOPHARMACEUTICALS SHANGHAI, published 2023).

T1: human CD70 (human, UniProt P32970 1-193)
T1 construct: whole, on cells; Stated as human for the CHO transfectants; also called cell surface CD70s
T1 sequence (looked up): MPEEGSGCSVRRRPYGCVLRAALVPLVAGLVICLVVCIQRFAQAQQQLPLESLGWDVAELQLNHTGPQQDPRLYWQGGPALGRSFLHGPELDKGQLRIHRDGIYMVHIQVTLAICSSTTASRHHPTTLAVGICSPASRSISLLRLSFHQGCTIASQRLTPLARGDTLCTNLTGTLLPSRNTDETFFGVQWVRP


Legend:
human CD70 [1] = target: T1, human CD70; assay: flow cytometry on CHO cells expressing human CD70
Protocol: (§1) Cells were washed with 1% BSA-PBS once, and then incubated with 100 μl 1:500 diluted FITC-conjugated secondary antibody against human IgG-Fc (Cat #F9512, Sigma) at 4° C. for 45 min. Cells were washed once with 1% BSA-PBS, re-suspended in 200 μl 1% BSA-PBS, and then subject to FACS analysis using a flow cytometer (Merck Millipore, Guava® easyCyte 5HT).

human CD70 [2] = target: T1, human CD70; assay: flow cytometry on CD70+ CHO cells
Protocol: as §1

human CD70 [3] = target: T1, human CD70; assay: flow cytometry on CD47+CD70+ Raji cells

binding result (human CD70 [2]) | Binder | other results
– | IMM40C (antibody, human IgG1, kappa, V domains shown, Chimeric IgG: mouse variable regions with human IgG1 and human kappa constant regions; expressed in CHO-S cells) VH: QVQLQQSGPEVVRPGVSVKISCKGSGYTFTDSALHWVKQSHAKSLEWIGVISTYDGDTDYNQKFKGKATMTVDKSSSTAYMELARLTSEDSAIYYCARRGYYDYDWFPYWGQGTLVTVSA VL: DIVLTQSPASLAISLGQRATISCRASKSVSASGYSFLHWYQQKPGQPPKLLIYLASNLESGVPARFSGSGSGTDFTLNIHPVEEEDAATFYCQHSRELPPTFGGGTKLEIKR | binding result (human CD70 [1]): binds
binds | IMM40H (antibody, human IgG1, kappa, V domains shown, Humanized IgG1/kappa; X=N for IMM40H; N85 is a glycosylation site in the light chain variable region; also called IMM4OH) VH: QVQLVQSGAEVKKPGASVKVSCKVSGYTFTDSALHWVRQAPGKGLEWMGVISTYDGDTDYNQKFKGRVTMTEDTSTDTAYMELSSLRSEDTAVYYCARRGYYDYDWFPYWGQGTLVTVSA VL: DIVLTQSPASLAVSPGQRATITCRASKSVSASGYSFLHWYQQKPGQPPKLLIYLASNLESGVPARFSGSGSGTDFTLTINPVEANDTANYYCQHSRELPPTFGGGTKVEIKR | –
binds | IMM40M (antibody, human IgG1, kappa, V domains shown, IMM40H with N85E in the light chain variable region, which removes a glycosylation site; also called IMM4OM) VH: QVQLVQSGAEVKKPGASVKVSCKVSGYTFTDSALHWVRQAPGKGLEWMGVISTYDGDTDYNQKFKGRVTMTEDTSTDTAYMELSSLRSEDTAVYYCARRGYYDYDWFPYWGQGTLVTVSA VL: DIVLTQSPASLAVSPGQRATITCRASKSVSASGYSFLHWYQQKPGQPPKLLIYLASNLESGVPARFSGSGSGTDFTLTINPVEAEDTANYYCQHSRELPPTFGGGTKVEIKR | –
– | Cusatuzumab (antibody, human IgG1, lambda, V domains shown, Anti-CD70 IgG used as comparator) VH: EVQLVESGGGLVQPGGSLRLSCAASGFTFSVYYMNWVRQAPGKGLEWVSDINNEGGTTYYADSVKGRFTISRDNSKNSLYLQMNSLRAEDTAVYYCARDAGYSNHVPIFDSWGQGTLVTVSS VL: QAVVTQEPSLTVSPGGTVTLTCGLKSGSVTSDNFPTWYQQTPGQAPRLLIYNTNTRHSGVPDRFSGSILGNKAALTITGAQADDEAEYFCALFISNPSVEFGGGTQLTVLG | binding result (human CD70 [3]): binds
